{"source": "patent US6699662", "about": "“Inhibitors of staphylococcus SarA protein function involved in the expression of staphylococcal virulence factors and the use thereof in treating staphylococcal infections” (University of Arkansas)", "binders": {"B1": {"name": "agr P2-P3 inter-promoter region (cloned in pBKH50; DNase I footprint fragment about 240 bp with vector ends) (dsDNA)", "DNA 1": "CATTAAAACATGCTAAAAGCATTTATTTTCCAATTTTTCTTAACTAGTCGTTTTTTATTCTTAACTGTAAATTTTTTTATGTTAAAATATTAAATACAAATTACATTTAACAGTTAAGTATTTATTTCCTACAGTTAGGCAATATAATGATAAAAGATTGTACTAAATCGTATAATGACAGGATCCCCGG", "DNA 2": "CCGGGGATCCTGTCATTATACGATTTAGTACAATCTTTTATCATTATATTGCCTAACTGTAGGAAATAAATACTTAACTGTTAAATGTAATTTGTATTTAATATTTTAACATAAAAAAATTTACAGTTAAGAATAAAAAACGACTAGTTAAGAAAAATTGGAAAATAAATGCTTTTAGCATGTTTTAAGT"}}, "molecular_target": "T1, SarA (staphylococcal accessory regulator A), strain DB (Staphylococcus aureus, UniProt Q2G2U9 SEQ:1-124)", "T1 sequence": "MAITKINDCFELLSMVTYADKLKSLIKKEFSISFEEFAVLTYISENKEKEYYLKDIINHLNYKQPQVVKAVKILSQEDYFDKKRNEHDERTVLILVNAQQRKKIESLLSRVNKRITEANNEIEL", "test": "footprint", "conditions": "tags: none (untagged full-length, expressed from pET9a in E. coli BL21(DE3)pLys); chain copies: 2 (dimer, stated); label: 32P"}
{"binder": "B1", "values": [{"measurement": "apparent K (half saturation)", "result": 4.24, "unit": "pM"}]}
